The values that follow come from patent US20190256595A1 (INSTITUT NATIONAL DE LA SANT ET DE LA RECHERCH M DICAL …, published 2019).

Experiment [1] deals with T1, CD160-TM isoform (CD160 transmembrane isoform) (human).
T1 chain: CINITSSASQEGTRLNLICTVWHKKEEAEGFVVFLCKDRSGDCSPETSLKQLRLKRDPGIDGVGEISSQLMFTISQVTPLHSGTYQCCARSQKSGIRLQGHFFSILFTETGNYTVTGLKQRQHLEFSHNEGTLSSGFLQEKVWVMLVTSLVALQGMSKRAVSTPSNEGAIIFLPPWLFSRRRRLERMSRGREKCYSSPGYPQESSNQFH
Nature of the experiment: flow cytometry on IL2-activated human PBMC, gated CD3-CD56+ NK cells. The procedure: (§1) CHO and HEK transfected cells were labelled with the anti-CD160-GPI mAb CL1-R2 or BY55, the fully human A12 or B6 antibody or their corresponding isotypic control IgG. […] Cell acquisition was performed on a CytoFlex cytometer and results were analysed with FlowJo software.
For PBMC, CD160 labelling was performed as above. Following washes and addition of normal mouse serum, cells were incubated with a mix of CD8-FITC, CD56-PCS, CD3-APC and CD4-PC7 mAbs. After cell acquisition, analyses were performed to distinguish the CD3⁺CD4⁺ and CD3⁺CD8⁺ T lymphocytes, and the CD3⁻CD56⁺ NK cells within the lymphocytes population.
Background: In flow cytometry, cells or beads pass a laser one at a time.

In experiment [2] the target is T2, recombinant soluble CD160-His Tag (human, UniProt O95971 26-160).
T2 construct: also called sCD160; CD160 soluble isoform; not shown: His tag
T2 sequence: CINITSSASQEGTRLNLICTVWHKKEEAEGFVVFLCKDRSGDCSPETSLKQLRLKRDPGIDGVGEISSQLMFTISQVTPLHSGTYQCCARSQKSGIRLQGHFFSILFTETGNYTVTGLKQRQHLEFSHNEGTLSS
Nature of the experiment: sandwich ELISA: coated antibody, soluble CD160-His, anti-His-HRP. As for the experimental part: FIG. 4: sCD160 is recognized by the antibodies CL1-R2, R&D 6700 and RB312 but not A12. 1 ug per well of antibody was coated overnight on a 96 well maxisorb plate. After saturation with PBS-5%BSA, lOng of recombinant soluble CD160-His Tag were added to each well and incubated 2h at room temperature. After washing, revelation was done with anti-His-HRP then TMB substrate.
On the technique in general: An ELISA detects its analyte on a solid surface through an enzyme-linked reagent.

Experiment [3] has as its target T3, Flag-tagged CD160-TM isoform expressed on HEK cells (human).
T3 construct: In the immunoprecipitation the protein came from a 1% NP40 lysate of these cells; Bands were read as mono-, di- and quadrimeric forms; also called HEK-CD160TM; Flag-tagged CD160TM receptor; not shown: Flag tag
T3 chain: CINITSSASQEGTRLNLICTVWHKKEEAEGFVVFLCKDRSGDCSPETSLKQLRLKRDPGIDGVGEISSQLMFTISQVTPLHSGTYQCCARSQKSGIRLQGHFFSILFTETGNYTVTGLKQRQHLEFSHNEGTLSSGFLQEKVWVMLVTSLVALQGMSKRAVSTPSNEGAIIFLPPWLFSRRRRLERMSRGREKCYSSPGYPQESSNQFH
Nature of the experiment: flow cytometry on HEK-CD160TM cells. The procedure:
as §1
(§2) After selection on HEK-CD160TM cells, A12 and B6 specificity for CD160TM isoform was first verified by flow cytometry on both CD160-GPI and CD160TM expressing transfectants. As shown on FIG. 1, a positive labelling was obtained with A12 and B6 antibodies on HEK-CD160TM cells but not on CHO-CD160-GPI cells. Conversely, the anti-CD160-GPI mAb CL1-R2 or BY55 gave a positive labelling only on CD160-GPI-expressing cells, ruling out the possibility that A12 and B6 negativity was linked to the non-expression of CD160-GPI on CHO transfectants.

Experiment [4] addresses T4, CD160 GPI-anchored isoform expressed on CHO cells (human, UniProt O95971 26-160, GPI anchor at the C terminus end).
T4 construct: also called CHO-CD160-GPI
T4 sequence: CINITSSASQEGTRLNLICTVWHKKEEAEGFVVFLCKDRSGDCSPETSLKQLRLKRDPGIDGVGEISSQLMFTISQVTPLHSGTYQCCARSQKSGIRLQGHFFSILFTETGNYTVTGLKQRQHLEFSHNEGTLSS
Nature of the experiment: flow cytometry on CHO-CD160-GPI cells. As for the experimental part:
as §1, §2

The target in experiment [5] is T3, Flag-tagged CD160-TM isoform expressed …. Nature of the experiment: immunoprecipitation from HEK-CD160TM lysate, anti-Flag Western blot, non-reducing. As for the experimental part: FIG. 3: Assessment of A12 specificity by immunoprecipitation. Post-nuclear lysates were prepared from HEK-CD160TM cells and subjected to immunoprecipitation with either mouse (mu IgG) or human (hu Ig) isotypic control IgG, chimeric murine A12 (mu A12) or fully human A12 (hu A12) antibody. […] Arrows indicate CD160TM-related signals.
HEK-CD160TM cells, that express a Flag-tagged version of CD160TM isoform, were lysed in 1% NP40 lysis buffer. Post-nuclear lysates were prepared and subjected to immuno-precipitation with the fully human A12 antibody or mouse chimeric A12. Human and mouse IgG were used as negative controls, respectively. Immune complexes were further collected with protein G Sepharose beads. Following washes, non-reducing sample buffer (devoid of reducing agent) was added and samples were finally heat-denatured. Proteins were separated by SDS-10% PAGE, electrically transferred on a nitrocellulose membrane and subjected to immuno-blotting with and anti-Flag mAb plus HRP-coupled goat anti-mouse IgGs. Revelation was performed by enhanced chemiluminescence and images acquired with an ImageQuant LAS device.

Experiment [6] has as its target T2, recombinant soluble CD160-His Tag. Nature of the experiment: sandwich ELISA: coated antibody, soluble CD160-His, anti-His-HRP (data not shown).

B1: A12 antibody (fully human A12 antibody) (antibody, human IgG1, V domains shown)
VH: EVQLVESGGSLVKPGGSLRLSCAASGFTFSNYSMNWVRQAPGKGLEWISYIYGSSRYISYADFVKGRFTISRDNATNSLYLQMNSLRAEDTAVYYCVRSYYGGMDVWGRGTLVTVSS
VL: QSVLTQPASVSGSPGQSITISCAGTSSDVGGYYGVSWYQQHPGKAPKLMIYYDSYRPSGVSNRFSGSKSGNTASLTISGLQAEDEADYYCSSSTYYSTRVFGGGTKLEK
notes: Fully human aglycosylated antibody selected by phage display on HEK-CD160TM cells; also called hu A12
For B1, the binding result in experiment [1] is “binds”; in experiment [2], “no binding”; in experiment [3], “binds”; in experiment [4], “no binding”.

B2: murine chimeric version of A12 antibody (antibody, V domains shown)
VH: EVQLVESGGSLVKPGGSLRLSCAASGFTFSNYSMNWVRQAPGKGLEWISYIYGSSRYISYADFVKGRFTISRDNATNSLYLQMNSLRAEDTAVYYCVRSYYGGMDVWGRGTLVTVSS
VL: QSVLTQPASVSGSPGQSITISCAGTSSDVGGYYGVSWYQQHPGKAPKLMIYYDSYRPSGVSNRFSGSKSGNTASLTISGLQAEDEADYYCSSSTYYSTRVFGGGTKLEK
notes: also called muA12; mu A12
As to B2, the binding result in experiment [5] is listed as “binds”.

B3: B6 antibody (fully human B6 antibody) (antibody, human IgG1, V domains shown)
VH: EVQLVESGGSLVKPGGSLRLSCAASGFTFSNYYMNWVRQAPGKGLEWISGIYGSSRYINYADFVKGRFTISRDNATNSLYLQMNSLRAEDTAVYYCVRSYYGGMDVWGRGTLVTVSS
VL: QSVLTQPASVSGSPGQSITISCAGTSSDVGGYSYVSWYQQHPGKAPKLMIYYDSYRPSGVSNRFSGSKSGNTASLTISGLQAEDEADYYCSSYTYYSTRVFGGGTKLEK
notes: From the same phage display selection as A12
B3: the binding result is listed as “binds” in experiment [3], “no binding” in experiment [6] and “no binding” in experiment [4].
